Source: patent US20240374748A1 (University of California, published 2024)

B1: M25ADLF IgG1 (antibody, V domains shown)
VH: QVQLQQSGGGLVKPGGSLRLSCAASGFTFSSYDMHWVRQAPGKGLEWVAVISYDGSNKYYADSVKGRFTISRDNSKNTLYLQMDSLRAEDTAVYFCAKEGDSSRWSYDLWGRGTLVTVSS
VL: QSALTQPASVSGSPGQSITISCTGTSSDVGGYNYVSWYQQHPGKAPKVMIYDVTNRPSGVSNRFSGSKSGNTASLTISGLQAEDEADYYCSSYTSTSTFVVFGGGTKLTVLG
notes: Tested as human IgG1; Residue limits are from CLM-00120
B2: M25AD IgG1 (antibody, V domains shown)
VH: QVQLQQSGGGLVKPGGSLRLSCAASGFTFSSYDMHWVRQAPGKGLEWVAVISYDGSNKYYADSVKGRFTISRDNSKNTLYLQMDSLRAEDTAVYFCAKEGDSSRWSYDLWGRGTLVTVSS
VL: QSALTQPASVSGSPGQSITISCTGTSSDVGGYNYVSWYQQHPGKAPKVMIYDVTNRPSGVSNRFSGSKSGNTASLTISGLQAEDEADYYCSSYTSTSTLVVFGGGTKLTVL
notes: Tested in its IgG1 form; also called a variant of M25
B3: M25FYIA IgG1 (antibody, V domains shown)
VH: QVQLQQSGGGLVKPGGSLRLSCAASGFTFSSYAMHWVRQAPGKGLEWVAVISYDGSNKYYADSVKGRFTISRDNSKNTLYLQMDSLRAEDTAVYYCAKEGDSSRWSYDLWGRGTLVTVSS
VL: QSALTQPASVSGSPGQSITISCTGTSSDVGGYNYVSWYQQHPGKAPKVMIYDVTNRPSGVSNRFSGSKSGNTASLTISGLQAEDEADYYCSSYTIASTLVVFGGGTKLTVL
notes: Tested as human IgG1
B4: M25 IgG1 (antibody, V domains shown)
VH: QVQLQQSGGGLVKPGGSLRLSCAASGFTFSSYAMHWVRQAPGKGLEWVAVISYDGSNKYYADSVKGRFTISRDNSKNTLYLQMDSLRAEDTAVYFCAKEGDSSRWSYDLWGRGTLVTVSS
VL: QSALTQPASVSGSPGQSITISCTGTSSDVGGYNYVSWYQQHPGKAPKVMIYDVTNRPSGVSNRFSGSKSGNTASLTISGLQAEDEADYYCSSYTSTSTLVVFGGGTKLTVL
notes: also called our M25 antibody; our anti-ALPPL2 antibody M25

Tests used:
ALPP = target: T1, ALPP (human, UniProt P05187 23-506); assay: FACS on live ALPP-transfected HEK293 cells
T1 construct: Expressed on transfected HEK293 cells; also called placentally expressed ALPP

ALPL = target: T2, ALPL (UniProt P05186 18-501, limits assumed); assay: FACS on live transfected HEK293 cells, IgG1
T2 construct: whole, on cells; Expressed on ALPL-transfected HEK293 cells; also called tissue-nonspecific, liver/bone/kidney alkaline phosphatase
T2 sequence (looked up): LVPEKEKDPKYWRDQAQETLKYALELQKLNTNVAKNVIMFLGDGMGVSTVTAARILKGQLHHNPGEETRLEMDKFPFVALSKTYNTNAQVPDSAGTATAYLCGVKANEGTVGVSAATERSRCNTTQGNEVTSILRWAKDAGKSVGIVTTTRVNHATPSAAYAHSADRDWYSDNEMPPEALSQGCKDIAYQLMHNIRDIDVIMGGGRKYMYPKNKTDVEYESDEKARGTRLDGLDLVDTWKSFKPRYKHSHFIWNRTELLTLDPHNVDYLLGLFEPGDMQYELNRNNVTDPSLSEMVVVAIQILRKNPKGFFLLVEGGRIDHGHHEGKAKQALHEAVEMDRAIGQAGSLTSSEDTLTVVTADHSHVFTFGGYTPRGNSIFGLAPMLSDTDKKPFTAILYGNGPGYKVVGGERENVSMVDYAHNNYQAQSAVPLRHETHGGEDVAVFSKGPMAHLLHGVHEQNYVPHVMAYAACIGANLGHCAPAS

ALPPL2 [1] = target: T3, ALPPL2 (human, UniProt P10696 20-503); assay: FACS on live HEK293 cells transfected with ALPPL2 (GFP+ gated), curve fit of normalized MFI; ALPPL2-transfected HEK293 cells
T3 construct: Expressed from an ALPPL2 plasmid or cDNA on HEK293 cells, and endogenous on tumor cells; also called placentally expressed ALPPL2; membrane ALPPL2
Procedure: (§1) Cells were incubated with antibody at room temperature for 1h in PBS/0.2% fetal calf serum, washed three times and further incubated with ALEXAFLOU®-647-labeled anti-human secondary antibody. GFP+ cells were gated and analyzed for mean fluorescence intensity (MFI). […] Similar binding results were obtained on ALPP-transfected cells. There is no binding to ALPL-transfected cells.

ALPPL2 [2] = target: T3, ALPPL2; assay: apparent affinity on tumor cells, IgG1; method and cell line not stated; tumor cells, IgG1 form
ALPPL2 [3] = target: T3, ALPPL2; assay: FACS on live HEK293 cells transfected with ALPPL2 (GFP+ gated), curve fit of normalized MFI
Procedure: as §1, with “either ALPL or ALPI-transfected” for “ALPL-transfected”

ALPI = target: T4, ALPI (UniProt P09923 20-503, limits assumed); assay: FACS on live transfected HEK293 cells, IgG1
T4 construct: whole, on cells; Expressed on ALPI-transfected HEK293 cells; also called intestinal alkaline phosphatase
T4 sequence (looked up): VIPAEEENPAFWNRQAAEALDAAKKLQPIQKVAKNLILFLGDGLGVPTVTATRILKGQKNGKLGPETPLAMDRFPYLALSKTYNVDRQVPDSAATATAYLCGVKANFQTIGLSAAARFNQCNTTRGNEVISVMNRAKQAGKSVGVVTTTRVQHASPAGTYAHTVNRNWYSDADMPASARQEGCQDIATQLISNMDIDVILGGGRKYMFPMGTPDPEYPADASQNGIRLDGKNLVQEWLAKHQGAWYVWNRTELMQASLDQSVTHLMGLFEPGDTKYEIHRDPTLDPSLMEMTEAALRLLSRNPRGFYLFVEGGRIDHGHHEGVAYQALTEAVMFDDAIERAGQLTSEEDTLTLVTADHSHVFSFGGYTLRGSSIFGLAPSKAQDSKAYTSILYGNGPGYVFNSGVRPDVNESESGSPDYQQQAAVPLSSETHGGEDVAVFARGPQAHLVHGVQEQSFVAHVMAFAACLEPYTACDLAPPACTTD

T1 sequence (P05187 23-506 limits assumed): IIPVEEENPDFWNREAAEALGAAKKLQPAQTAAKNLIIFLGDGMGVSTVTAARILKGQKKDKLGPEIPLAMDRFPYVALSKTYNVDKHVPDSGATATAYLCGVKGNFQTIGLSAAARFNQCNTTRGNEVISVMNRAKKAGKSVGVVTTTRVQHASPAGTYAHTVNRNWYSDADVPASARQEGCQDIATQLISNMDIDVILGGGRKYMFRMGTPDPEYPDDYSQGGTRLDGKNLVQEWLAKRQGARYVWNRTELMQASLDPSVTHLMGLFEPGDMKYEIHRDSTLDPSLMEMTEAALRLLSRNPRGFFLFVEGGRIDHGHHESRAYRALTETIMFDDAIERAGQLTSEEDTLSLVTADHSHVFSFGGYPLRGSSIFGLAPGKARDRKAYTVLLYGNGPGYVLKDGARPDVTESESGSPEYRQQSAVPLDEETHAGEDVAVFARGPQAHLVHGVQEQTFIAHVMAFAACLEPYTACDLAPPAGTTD
T3 sequence (P10696 20-503 limits assumed): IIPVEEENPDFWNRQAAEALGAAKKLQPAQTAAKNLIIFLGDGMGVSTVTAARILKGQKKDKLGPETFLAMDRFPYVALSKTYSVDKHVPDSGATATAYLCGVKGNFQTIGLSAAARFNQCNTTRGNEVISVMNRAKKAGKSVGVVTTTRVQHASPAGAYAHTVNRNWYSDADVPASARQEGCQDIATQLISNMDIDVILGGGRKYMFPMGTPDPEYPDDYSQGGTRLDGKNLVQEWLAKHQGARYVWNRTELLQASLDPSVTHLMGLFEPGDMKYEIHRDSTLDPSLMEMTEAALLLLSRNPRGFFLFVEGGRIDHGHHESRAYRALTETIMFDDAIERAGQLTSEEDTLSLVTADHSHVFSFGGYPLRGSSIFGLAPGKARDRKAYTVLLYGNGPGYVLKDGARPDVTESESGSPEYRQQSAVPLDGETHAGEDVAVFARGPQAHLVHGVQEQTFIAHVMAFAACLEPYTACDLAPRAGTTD

Binder | binding result (ALPP) | binding result (ALPL) | Kd (ALPPL2 [1]) | Kd (ALPPL2 [2]) | Kd (ALPPL2 [3]) | binding result (ALPI)
B1 | binds | no binding | 0.017 nM |  |  | 
B2 |  |  |  | 0.028 nM |  | 
B3 | binds | no binding | 0.0204 nM |  |  | 
B4 | binds | no binding |  |  | 0.506 nM | no binding
